In patent US20240117018A1:

Key:
Assay in all cases: cell-based or functional assay
[1] = molecular target: HIV-1 Env of pseudovirus 6244_13_B5_4576 (HIV-1)
[2] = molecular target: HIV-1 Env of pseudovirus Ce703010054_2A2 (HIV-1)
[3] = molecular target: HIV-1 Env of pseudovirus MS208.A1 (HIV-1)
[4] = molecular target: HIV-1 Env of pseudovirus REJO4541.67 (HIV-1)
[5] = molecular target: HIV-1 Env of pseudovirus RHPA4259.7 (HIV-1)
[6] = molecular target: HIV-1 Env of pseudovirus WITO4160.33 (HIV-1)
[7] = molecular target: Env of HIV-1 pseudovirus 0260.v5.c36 (HIV-1)
[8] = molecular target: Env of HIV-1 pseudovirus 1012_11_TC21_3257 (HIV-1)
[9] = molecular target: Env of HIV-1 pseudovirus 1054_07_TC4_1499 (HIV-1)
[10] = molecular target: Env of HIV-1 pseudovirus 191955_A11 (HIV-1)
[11] = molecular target: Env of HIV-1 pseudovirus 7030102001E5(Rev-) (HIV-1)
[12] = molecular target: Env of HIV-1 pseudovirus CNE21 (HIV-1)
[13] = molecular target: Env of HIV-1 pseudovirus Ce0393_C3 (HIV-1)
[14] = molecular target: Env of HIV-1 pseudovirus Ce1176_A3 (HIV-1)
[15] = molecular target: Env of HIV-1 pseudovirus Ce2060_G9 (HIV-1)
[16] = molecular target: Env of HIV-1 pseudovirus Ce704809221_1B3 (HIV-1)
[17] = molecular target: Env of HIV-1 pseudovirus Du156.12 (HIV-1)
[18] = molecular target: Env of HIV-1 pseudovirus Q23.17 (HIV-1)
[19] = molecular target: Env of HIV-1 pseudovirus Q461.e2 (HIV-1)
[20] = molecular target: Env of HIV-1 pseudovirus TRJO4551.58 (HIV-1)
[21] = molecular target: Env of HIV-1 pseudovirus ZM135M.PL10a (HIV-1)
[22] = molecular target: Env of HIV-1 pseudovirus ZM214M.PL15 (HIV-1)
[23] = molecular target: Env of HIV-1 pseudovirus ZM249M.PL1 (HIV-1)
[24] = molecular target: HIV-1 Env pseudovirus 1006_11_C3_1601 (HIV-1)
[25] = molecular target: HIV-1 Env pseudovirus 1012_11_TC21_3257 (HIV-1)
[26] = molecular target: HIV-1 Env pseudovirus Ce703010054_2A2 (HIV-1)
[27] = molecular target: HIV-1 Env pseudovirus HIV-001428-2.42 (HIV-1)
[28] = molecular target: HIV-1 Env pseudovirus HIV-16055-2.3 (HIV-1)
[29] = molecular target: HIV-1 Env pseudovirus Q23.17 (HIV-1)
[30] = molecular target: HIV-1 Env pseudovirus TRO.11 (HIV-1)
[31] = molecular target: HIV-1 Env pseudovirus WEAU_d15_410_787 (HIV-1)

N49P7 (antibody) showed an IC50 [1] of 0.111 µg/mL, an IC80 [1] of 0.386 µg/mL and an MPI [1] of 100. For the same substance, the IC50 [2] was 0.132 µg/mL, the IC80 [2] was 0.466 µg/mL and the MPI [2] was 100. The IC50 [3] was 0.12 µg/mL, the IC80 [3] was 0.479 µg/mL and the MPI [3] was 100. For the same substance, the IC50 [4] was 0.015 µg/mL, the IC80 [4] was 0.049 µg/mL and the MPI [4] was 100. The IC50 [5] was 0.083 µg/mL, the IC80 [5] was 0.246 µg/mL and the MPI [5] was 100. For the same substance, the IC50 [6] was 0.084 µg/mL, the IC80 [6] was 0.248 µg/mL and the MPI [6] was 100.

PG9 (antibody) gave an IC50 [7] of 1.69 µg/mL, an IC80 [7] of 9 µg/mL and an IC50 [8] of 0.172 µg/mL. It also gave an IC80 [8] of 0.605 µg/mL, an IC50 [9] of over 50 µg/mL and an IC80 [9] of over 50 µg/mL. For the same substance, the IC50 [10] was 0.053 µg/mL, the IC80 [10] was 0.154 µg/mL and the IC50 [11] was over 50 µg/mL. For the same substance, the IC80 [11] was over 50 µg/mL, the IC50 [12] was 0.038 µg/mL and the IC80 [12] was 0.094 µg/mL. It also gave an IC50 [13] of 0.02 µg/mL, an IC80 [13] of 0.055 µg/mL and an IC50 [14] of 0.014 µg/mL. The IC80 [14] was 0.044 µg/mL, the IC50 [15] was 0.045 µg/mL and the IC80 [15] was 0.172 µg/mL. For the same substance, the IC50 [16] was 0.037 µg/mL, the IC80 [16] was 0.137 µg/mL and the IC50 [17] was 0.026 µg/mL. For the same substance, the IC80 [17] was 0.19 µg/mL, the IC50 [18] was 0.027 µg/mL and the IC80 [18] was 0.082 µg/mL. The IC50 [19] was 1.48 µg/mL, the IC80 [19] was 8.72 µg/mL and the IC50 [20] was 0.503 µg/mL. For the same substance, the IC80 [20] was 4.06 µg/mL, the IC50 [21] was 20.6 µg/mL and the IC80 [21] was over 50 µg/mL. For the same substance, the IC50 [22] was over 50 µg/mL, the IC80 [22] was over 50 µg/mL and the IC50 [23] was 0.166 µg/mL. The IC80 [23] was 1.41 µg/mL.

For N49P7.1 (antibody), the IC50 [1] was 0.184 µg/mL, the IC80 [1] was 0.493 µg/mL and the MPI [1] was 100. The IC50 [2] was 0.085 µg/mL, the IC80 [2] was 0.364 µg/mL and the MPI [2] was 100. The IC50 [3] was 0.12 µg/mL, the IC80 [3] was 0.431 µg/mL and the MPI [3] was 100. For the same substance, the IC50 [4] was 0.022 µg/mL, the IC80 [4] was 0.088 µg/mL and the MPI [4] was 100. It also gave an IC50 [5] of 0.108 µg/mL, an IC80 [5] of 0.292 µg/mL and an MPI [5] of 100. The IC50 [6] was 0.121 µg/mL, the IC80 [6] was 0.326 µg/mL and the MPI [6] was 100.

N49P18.1 (antibody) was tested, and the IC50 [24] was 2.8 µg/mL, the IC80 [24] was 9.66 µg/mL and the MPI [24] was 99. For the same substance, the IC50 [25] was 16.1 µg/mL, the IC80 [25] was over 50 µg/mL and the MPI [25] was 79. For the same substance, the IC50 [26] was 4.15 µg/mL, the IC80 [26] was 11.6 µg/mL and the MPI [26] was 98. It also gave an IC50 [27] of 1.13 µg/mL, an IC80 [27] of 8.31 µg/mL and an MPI [27] of 100. The IC50 [28] was 8.04 µg/mL, the IC80 [28] was 22.6 µg/mL and the MPI [28] was 97. It also gave an IC50 [29] of 1.16 µg/mL, an IC80 [29] of 6.93 µg/mL and an MPI [29] of 100. The IC50 [30] was 4.25 µg/mL, the IC80 [30] was 11.7 µg/mL and the MPI [30] was 99. It also gave an IC50 [31] of 4.27 µg/mL, an IC80 [31] of 15.5 µg/mL and an MPI [31] of 98.

10E8 (antibody) showed an IC50 [7] of over 10 µg/mL, an IC80 [7] of over 10 µg/mL and an IC50 [8] of 0.244 µg/mL. The IC80 [8] was 4.21 µg/mL, the IC50 [9] was 0.046 µg/mL and the IC80 [9] was 0.305 µg/mL. The IC50 [10] was 0.68 µg/mL, the IC80 [10] was 3.53 µg/mL and the IC50 [11] was 6.71 µg/mL. It also gave an IC80 [11] of over 10 µg/mL, an IC50 [12] of 1.9 µg/mL and an IC80 [12] of over 10 µg/mL. It also gave an IC50 [13] of 1.18 µg/mL, an IC80 [13] of 7.42 µg/mL and an IC50 [14] of 0.867 µg/mL. The IC80 [14] was 3.92 µg/mL, the IC50 [15] was 3.52 µg/mL and the IC80 [15] was over 10 µg/mL. The IC50 [16] was 0.058 µg/mL, the IC80 [16] was 0.319 µg/mL and the IC50 [17] was 0.034 µg/mL. For the same substance, the IC80 [17] was 0.144 µg/mL, the IC50 [18] was 1.64 µg/mL and the IC80 [18] was 7.04 µg/mL. It also gave an IC50 [19] of 2.11 µg/mL, an IC80 [19] of over 10 µg/mL and an IC50 [20] of 0.475 µg/mL. For the same substance, the IC80 [20] was 4.78 µg/mL, the IC50 [21] was 0.171 µg/mL and the IC80 [21] was 1.19 µg/mL. For the same substance, the IC50 [22] was 1.96 µg/mL, the IC80 [22] was over 10 µg/mL and the IC50 [23] was 1.51 µg/mL. It also gave an IC80 [23] of 6.29 µg/mL.

N49P11 (antibody) was tested, and the IC50 [24] was 0.125 µg/mL, the IC80 [24] was 0.487 µg/mL and the MPI [24] was 100. The IC50 [25] was 10.6 µg/mL, the IC80 [25] was 29.3 µg/mL and the MPI [25] was 100. For the same substance, the IC50 [26] was 1.42 µg/mL, the IC80 [26] was 7.51 µg/mL and the MPI [26] was 100. The IC50 [27] was 0.221 µg/mL, the IC80 [27] was 1.64 µg/mL and the MPI [27] was 100. For the same substance, the IC50 [28] was 0.091 µg/mL, the IC80 [28] was 0.503 µg/mL and the MPI [28] was 100. It also gave an IC50 [29] of 0.034 µg/mL, an IC80 [29] of 0.254 µg/mL and an MPI [29] of 100. The IC50 [30] was 0.179 µg/mL, the IC80 [30] was 0.937 µg/mL and the MPI [30] was 100. It also gave an IC50 [31] of 1.7 µg/mL, an IC80 [31] of 6.02 µg/mL and an MPI [31] of 100.
